Seven molecules from patent US20260167728A1 (published 2026) can be followed below.

In test [1] the target is T1, human EGFR (human, UniProt P00533 25-645, limits assumed).
T1 construct: on HT-29 cells in the cytotoxicity assay; also called epidermal growth factor receptor
Kind of test: BLI, room temperature. The protocol: Each construct was expressed in small-scale and purified. Thermal stability was determined by Differential Scanning Fluorimetry. Melting temperature (Tₘ) determined by Differential Scanning Fluorimetry experiments described herein were performed either in duplicate or triplicate using GloMelt™ dye and QuantStudio5™. GloMelt™ dye undergoes fluorescence enhancement upon binding to hydrophobic regions of denatured proteins. Therefore, the dye can be used to detect protein unfolding or measure thermal stability. GloMelt™ dye is optimized for detection in the SYBR® Green channel of qPCR instruments. The Differential Scanning Fluorimetry experiments were performed in 96-well plates with 10 μg protein/reaction (equal to 0.5 mg/mL final protein concentration), reaction buffer, and GloMelt™ 10× dye according to manufacturer's instructions. Fluorescence of 96-well plates was read and melt curve plots were generated in the QuantStudio5™ qPCR system. Binding affinity was analyzed with bio-layer interferometry at room temperature with human EGFR as the antigen.
Background: Biolayer interferometry detects binding as a change in optical thickness at a sensor tip.

Another test deals with T2, cynomolgus monkey EGFR (cynomolgus monkey, UniProt A0A2K5WK39 25-645).
T2 construct: also called Cyno EGFR
Kind of test: SPR Biacore 37 C.

The target of the next test is human CD3 (human, UniProt P07766 23-126). Put plainly: SPR Biacore 37 C. On the technique in general: In SPR one partner is held on a chip, and binding of the other changes the refractive index at the surface.
In another test the target is T3, cynomolgus monkey CD3 (cynomolgus monkey, UniProt Q95LI5 22-117).
T3 construct: also called Cyno CD3
T3 sequence: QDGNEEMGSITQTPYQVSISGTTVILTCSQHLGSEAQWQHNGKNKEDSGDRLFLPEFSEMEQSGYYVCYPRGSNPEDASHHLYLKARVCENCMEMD
Put plainly: SPR Biacore 37 C.

The target of test [2] is T1, human EGFR. Kind of test: SPR Biacore 37 C.
For test [3], the target named is T4, huCD3e-mFc (human, UniProt P07766 23-126).
T4 construct: not shown: mFc, not described
Put plainly: Pool 3 screen.

Test [4] has as its target T4, huCD3e-mFc. Put plainly: Pool 3 screen, R3.

T4 sequence (P07766 23-126): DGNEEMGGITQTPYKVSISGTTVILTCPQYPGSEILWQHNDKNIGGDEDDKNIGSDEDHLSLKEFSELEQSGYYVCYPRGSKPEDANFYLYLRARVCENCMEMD
Chain of human CD3 (P07766 23-126 limits assumed): as the sequence (P07766 23-126) above

B1: AC1955 (EGFR.2/CD3.9 paTCE) (bispecific antibody)
VL: DIQMTQSPSSLSASVGDRVTITCQASQDISNYLNWYQQKPGKAPKLLIYDASNLETGVPSRFSGSGSGTDFTFTISSLQPEDIATYFCQHFDHLPLAFGGGTKVEIK
VH: QVQLQESGPGLVKPSETLSLTCTVSGGSVSSGDYYWTWIRQSPGKGLEWIGHIYYSGNTNYNPSLKSRLTISIDTSKTQFSLKLSSVTAADTAIYYCVRDRVTGAFDIWGQGTMVTVSS
scFv: ELVVTQEPSLTVSPGGTVTLTCRSSTGAVTTSNYANWVQQKPGQAPRGLIGGTNKRAPGTPARFSGSLLGGKAALTLSGVQPEDEAEYYCALWYSNLWVFGGGTKLTVLGATPPETGAETESPGETTGGSAESEPPGEGEVQLLESGGGLVQPGGSLKLSCAASGFTFNTYAMNWVRQAPGKGLEWVARIRSKYNNYATYYADSVKDRFTISRDDSKNTAYLQMNNLKTEDTAVYYCVRHGNFGNSYVSWFAYWGQGTLVTVSS
notes: One polypeptide; also called EGFR-XPAT gen1; pJB0169
Broadly, the Kd is the equilibrium constant for the complex coming apart. With B1, the Kd with human EGFR [1] turned out to be 0.72 nM.

B2: AMX-525 (1x-N) (bispecific antibody)
chain: ASSATPESGPGTSTEPSEGSAPGTSESATPESGPGSGPGTSESATPGTSESATPESGPGSEPATSGSETPGTSESATPESGPGTSTEPSEGSAPGSPAGSPTSTEEGTSESATPESGPGSEPATSGSETPGTSESATPESGPGSPAGSPTSTEEGSPAGSPTSTEEGTSTEPSEGSAPGTSESATPESGPGTSESATPESGPGTSESATPESGPGSEPATSGSETPGSEPATSGSETPGSPAGSPTSTEEGTSTEPSEGSAPGTSTEPSEGSAPGSEPATSGSETPGTSESATPEAGRSASHTPAGLTGPGTSESATPESDIQMTQSPSSLSASVGDRVTITCQASQDISNYLNWYQQKPGKAPKLLIYDASNLETGVPSRFSGSGSGTDFTFTISSLQPEDIATYYCQHFDHLPLAFGQGTKVEIKSESATPESGPGTSPGATPESGPGTSESATPQVQLQESGPGLVKPSETLSLTCTVSGGSVSSGDYYWTWIRQPPGKGLEWIGHIYYSGNTNYNPSLKSRVTISVDTSKNQFSLKLSSVTAADTAVYYCARDRVTGAFDIWGQGTLVTVSSGGGGSELVVTQEPSLTVSPGGTVTLTCRSSNGAVTSSNYANWVQQKPGQAPRGLIGGTNKRAPGTPARFSGSLLEGKAALTLSGVQPEDEAVYYCALWYPNLWVFGGGTKLTVLSESATPESGPGTSPGATPESGPGTSESATPEVQLVESGGGIVQPGGSLRLSCAASGFTFSTYAMNWVRQAPGKGLEWVGRIRTKRNDYATYYADSVKGRFTISRDDSKNTLYLQMNSLKTEDTAVYYCVRHENFGNSYVSWFAHWGQGTLVTVSSGTATPESGPG
notes: Singly masked metabolite; that the N-terminal mask is the one kept is read from the label only; not shown: remnant of cleaved RSR-3213
Consider B2, for which the equilibrium dissociation constant (Kd) with cynomolgus monkey EGFR was found to be 0.25 nM; with human CD3, 36 nM; in the test with cynomolgus monkey CD3, 47 nM.

B3: AMX-525 (1x-C) (bispecific antibody)
chain: GTSESATPESDIQMTQSPSSLSASVGDRVTITCQASQDISNYLNWYQQKPGKAPKLLIYDASNLETGVPSRFSGSGSGTDFTFTISSLQPEDIATYYCQHFDHLPLAFGQGTKVEIKSESATPESGPGTSPGATPESGPGTSESATPQVQLQESGPGLVKPSETLSLTCTVSGGSVSSGDYYWTWIRQPPGKGLEWIGHIYYSGNTNYNPSLKSRVTISVDTSKNQFSLKLSSVTAADTAVYYCARDRVTGAFDIWGQGTLVTVSSGGGGSELVVTQEPSLTVSPGGTVTLTCRSSNGAVTSSNYANWVQQKPGQAPRGLIGGTNKRAPGTPARFSGSLLEGKAALTLSGVQPEDEAVYYCALWYPNLWVFGGGTKLTVLSESATPESGPGTSPGATPESGPGTSESATPEVQLVESGGGIVQPGGSLRLSCAASGFTFSTYAMNWVRQAPGKGLEWVGRIRTKRNDYATYYADSVKGRFTISRDDSKNTLYLQMNSLKTEDTAVYYCVRHENFGNSYVSWFAHWGQGTLVTVSSGTATPESGPGEAGRSASHTPAGLTGPATPESGPGTSESATPESGPGSPAGSPTSTEEGTSESATPESGPGSEPATSGSETPGTSESATPESGPGTSTEPSEGSAPGTSTEPSEGSAPGTSTEPSEGSAPGTSTEPSEGSAPGTSTEPSEGSAPGTSTEPSEGSAPGSPAGSPTSTEEGTSTEPSEGSAPGTSESATPESGPGSEPATSGSETPGTSESATPESGPGSEPATSGSETPGTSESATPESGPGTSTEPSEGSAPGTSESATPESGPGSPAGSPTSTEEGSPAGSPTSTEEGSPAGSPTSTEEGTSESATPESGPGTSTEPSEGSAPGTSESATPESGPGSEPATSGSETPGTSESATPESGPGSEPATSGSETPGTSESATPESGPGTSTEPSEGSAPGSPAGSPTSTEEGTSESATPESGPGSEPATSGSETPGTSESATPESGPGSPAGSPTSTEEGSPAGSPTSTEEGTSTEPSEGSAPGTSESATPESGPGTSESATPESGPGTSPSATPESGPGSEPATSGSETPGSEPATSGSETPGSPAGSPTSTEEGTSTEPSEGSAPGTSTEPSEGSAPGSEPATSGSETPGTSESAGEPEA
A word on the koff: it is a measure of how fast the partners let go of each other. The term kon denotes the second-order rate constant of association. In the test with human EGFR [2], B3 displayed a Kd of 0.184 nM, a koff of 0.00036 s⁻¹ and a kon of 2e+06 M⁻¹ s⁻¹. In addition, in the test with cynomolgus monkey EGFR, the Kd came to 0.238 nM, the koff came to 0.00051 s⁻¹ and the kon turned out to be 2.12e+06 M⁻¹ s⁻¹.

B4: AC3811 (CD3.307) (scFv, V domains shown)
VH: EVQLVESGGGIVQPGGSLRLSCAASGFTFSTYAMNWVRQAPGKGLEWVGRIRTKRNDYATYYADSVKGRFTISRDDSKNTAYLQMNSLKTEDTAVYYCVRHENFGNSYVSWFAHWGQGTLVTVSS
VL: ELVVTQEPSLTVSPGGTVTLTCRSSNGAVTSSNYANWVQQKPGQAPRGLIGGTNKRAPGTPARFSGSLDGGKAALTLSGVQPEDEAVYYCALWYPNLWVFGGGTKLTVL
notes: Pool 3 format (remarks)
Regarding B4, the Kd with huCD3e-mFc [3] amounted to 6.35 nM; in the test with huCD3e-mFc [4], 4.8 nM.

B5: AC3813 (CD3.309) (scFv, V domains shown)
VH: EVQLVESGGGIVQPGGSLRLSCAASGFTFSTYAMNWVRQAPGKGLEWVGRIRTKRNDYATYYADSVKGRFTISRDDSKNTAYLQMNSLKTEDTAVYYCVRHENFGNSYVSWFAHWGQGTLVTVSS
VL: ELVVTQEPSLTVSPGGTVTLTCRSSNGAVTSSNYANWVQQKPGQAPRGLIGGTNKRAPGTPARFSGSLLEGKAALTLSGVQPEDEAVYYCALWYPNLWVFGGGTKLTVL
notes: Pool 3 format (remarks)
Regarding B5, the Kd in the test with huCD3e-mFc [3] amounted to 5.82 nM; in the test with huCD3e-mFc [4], 5.4 nM.

B6: AC3881 (CD3.377) (scFv, V domains shown)
VH: EVQLVESGGGIVQPGGSLRLSCAASGFTFSTYAMNWVRQAPGKGLEWVGRIRTKRNNYATTYADSVKGRFTISRDDSKNTVYLQMNSLKTEDTAVYYCVRHENFGNSYVSWFAHWGQGTLVTVSS
VL: ELVVTQEPSLTVSPGGTVTLTCRSSNGAVTSSNYANWVQQKPGQAPRGLIGGTNKRAPGTPARFSGSLLGGKAALTLSGVQPEDEAVYYCALWYPNLWVFGGGTKLTVL
notes: Pool 3 format (remarks)
As for B6, the Kd with huCD3e-mFc [3] amounted to 10.7 nM; in the test with huCD3e-mFc [4] it was 10.4 nM.

B7: AC3860 (CD3.356) (scFv, V domains shown)
VH: EVQLVESGGGIVQPGGSLRLSCAASGFTFSTYAMNWVRQAPGKGLEWVGRIRTKTNDYATYYADSVKGRFTISRDDSKNTAYLQMNSLKTEDTAVYYCVRHENFGNSYVSWFAHWGQGTLVTVSS
VL: ELVVTQEPSLTVSPGGTVTLTCRSSNGAVTSSNYANWVQQKPGQAPRGLIGGTNKRAPGTPARFSGSALGGKAALTLSGVQPEDEAVYYCALWYPNLWVFGGGTKLTVL
notes: Pool 3 format (remarks)
B7: the values for the Kd with huCD3e-mFc [3] and in the test with huCD3e-mFc [4] were 29.4 nM and 19.7 nM, respectively.
